How the values were obtained:
[1] = molecular target: T1, recombinant human PD-1-msFc (human, UniProt Q15116 25-167, limits assumed); test: ELISA, plate coated with recombinant human PD-1-msFc
T1 construct: not shown: mouse Fc ('msFc')
Description: Microtiter plates were coated with recombinant human PD-1-msFc in PBS, and then blocked with 5% bovine serum albumin in PBS. […] The plates were washed with PBS/Tween and then incubated with a goat-anti-human IgG Fc-specific polyclonal reagent conjugated to horseradish peroxidase at 37° C. After washing, the plates were developed with HRP substrate, and analyzed at OD 450 using a microtiter plate reader.

[2] = molecular target: T2, human PD-1 expressed on cells (human, UniProt Q15116 25-288); test: flow cytometry on HEK293 cells expressing human PD-1
T2 construct: whole, on cells; also called HEK293 cells expressing human PD-1; PD1 Effector cells
Description: After 20 minutes, the cells were washed with PBS containing 0.1% BSA and 0.05% NaN₃ (PBA) and the bound antibodies were detected by incubating the cells with a PE labeled goat anti-human IgG Fc-specific probe. The excess probe was washed from the cells with PBA and the cell associated fluorescence was determined by analysis using a FACSCanto II™ instrument (BD Biosciences, NJ, USA) according to the manufacturer's directions.

T1 sequence (Q15116 25-167 limits assumed): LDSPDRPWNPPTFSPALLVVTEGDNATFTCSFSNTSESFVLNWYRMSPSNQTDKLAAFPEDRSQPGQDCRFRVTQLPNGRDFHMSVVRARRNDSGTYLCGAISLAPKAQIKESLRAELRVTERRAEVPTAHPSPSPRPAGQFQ
T2 sequence (Q15116 25-288): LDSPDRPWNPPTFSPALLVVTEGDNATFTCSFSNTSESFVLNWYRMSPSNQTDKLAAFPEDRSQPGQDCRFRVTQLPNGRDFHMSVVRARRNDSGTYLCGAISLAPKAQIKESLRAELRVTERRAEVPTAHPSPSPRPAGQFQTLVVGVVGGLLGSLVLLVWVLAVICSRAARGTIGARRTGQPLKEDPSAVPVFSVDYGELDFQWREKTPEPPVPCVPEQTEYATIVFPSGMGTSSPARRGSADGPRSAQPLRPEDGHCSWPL

B1: bispecific construct CDX-585 (bispecific antibody, human IgG1, kappa)
heavy: QVQLVQSGAEVVKPGASVKISCKASGYTFTDYVMHWVRQAPGQSLEWMGVISTYHIPAVYNQKFKGKATMTVDTSTSTVYLELSSLRSEDTAVYYCAREVYGESYYFDVWGQGTTVTVSSASTKGPSVFPLAPSSKSTSGGTAALGCLVKDYFPEPVTVSWNSGALTSGVHTFPAVLQSSGLYSLSSVVTVPSSSLGTQTYICNVNHKPSNTKVDKKVEPKSCDKTHTCPPCPAPEAQGGPSVFLFPPKPKDTLYITREPEVTCVVVDVSHEDPEVKFNWYVDGVEVHNAKTKPREEQYNSTYRVVSVLTVLHQDWLNGKEYKCQVSNKALPAPIEKTISKAKGQPREPQVYTLPPSRDELTKNQVSLTCLVKGFYPSDIAVEWESNGQPENNYKTTPPVLDSDGSFFLYSKLTVDKSRWQQGNVFSCSVMHEALHNHYTQKSLSLSPGKGSSGGGGSDIQMTQSPSSLSASVGDRVTITCRASENIYSYLAWYQQKPGKAPKFLVYNADTLAEGVPSRFSGSGSGTDFTLTISSLQPEDFATYYCQHHYGTPFTFGCGTKLEIKGGGGSGGGGSGGGGSGGGGSQVQLVQSGAEVKKPGASVKVSCKASGYSFTGYTMHWVRQAPGQCLEWMGLINPYTGGTDYNQKFQGRVTMTVDRSTSTAYMELSSLRSEDTAVYYCARERPGGSQFIYYYALDYWGQGTTVTVSS
light: DIVMTQTPLSLPVTPGEPASISCRSSQSIVHSAGNTYLEWYLQKPGQSPQLLIYKVSNRFSGVPDRFSGSGSGTDFTLKISRVEAEDVGVYYCFQGSHVPYTFGGGTKVEIKRTVAAPSVFIFPPSDEQLKSGTASVVCLLNNFYPREAKVQWKVDNALQSGNSQESVTEQDSKDSTYSLSSTLTLSKADYEKHKVYACEVTHQGLSSPVTKSFNRGEC
notes: Tetravalent format, bivalent for each target; The Fc carries L234A, L235Q, K322Q (AQQ) and M252Y, S254T, T256 (YTE); The scFv is stabilised by a disulfide from Gly to Cys at positions 558 and 629 of the mature heavy chain; also called E1A9-7B1; bsAb
Which results are given for B1?
binding result [1]: binds; binding result [2]: binds

Reference: patent US20240409639A1 (CELLDEX THERAPEUTICS, published 2024)
